Measurements: the supplement of paper PMC10201428
± gives the standard deviation of the averaged measurements.

tested on: VchCAST RNA-guided transposition machinery (E. coli BL21(DE3) host, lacZ target); test: relative integration efficiency (T-RL orientation) vs wild-type transposon end (log2 (normalized fold change)); transposon end mutated: left end; higher = more efficient transposition
Method: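 Pooled, barcoded VchCAST (Tn6677) mini-transposon donor libraries; each variable transposon-end sequence sits in a fixed pDonor mini-transposon context (10-bp barcode and cargo not included). Left- or right-end libraries were co-transformed with pEffector (TniQ-Cascade, TnsABC, lacZ crRNA, T7, 0.1 mM IPTG) into E. coli BL21(DE3) and grown 18 h at 37 C. T-LR and T-RL junction amplicons were sequenced; output/input barcode fold change was normalised to the mean of four wild-type barcodes and log2-transformed. Two biological replicates; zero-count/undetected variants carry floor values (-10 / -15), censored here. Barcode uncoupling by PCR recombination adds noise.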

“AATGTTGTTGATGCAACCATAAAGTGATATTTAATAATTATTTATAATCAGCAACAACCATATATTGATATCTCCTTAACCACAAAAACAAAACAACCATAAGTTGATATTTTTGTGAATCGAGTATTTCAGCAAAACTACTGCAGTAAGAA” and “AATGTTGTTGATGCAACCATAAAGTGATATTTAATAATTATTTATAATCAGCAACCAACCATATATTGATATCTCACAAAACAACCATAAGTTGATATTTTTGTGAATCGAGTATTTCAGCAAAACTACTGCAGTAAGAAAGTTACTTCGTG” are within 0.2 log units of each other in “relative integration efficiency (log2)” value: -6.46 ± 1.4 for the first, -6.44 ± 0.52 for the second.

Compared with “AATGTTGTTGATGCAACCATAAAGTGATATTTAATAATTATTTATAATCAGCAACCAACCATATATTGATATCTCTTAACCACAAAAACAAAACAACCATAAGTTGATATTTTTGTGAATCGAGTATTTCAGCAAAACTACTGCAGTAAGAA”, “AATGTTGTTGATGCAACCATAAAGTGATATTTAATAATTATTTATAATCAGCAACCATATATTGATATCTCACAAAACAACCATAAGTTGATATTTTTGTGAATCGAGTATTTCAGCAAAACTACTGCAGTAAGAAAGTTACTTCGTGGTAT” is lower in “relative integration efficiency (log2)” value: -5.89 ± 1.6 for the first, -8.36 ± 0.35 for the second.

“AATGTTGTTGATGCAACCATAAAGTGATATTTAATAATTATTTATAATCAGCAACCATATATTGATATCTCCAACTTAACCACAAAAACAAAACAACCATAAGTTGATATTTTTGTGAATCGAGTATTTCAGCAAAACTACTGCAGTAAGAA” and “AATGTTGTTGATGCAACCATAAAGTGATATTTAATAATTATTTATAATCAGCAACGGCCAACACCCCACCAACGCGCGGTCGCGAGACACCCCACCAACGCCTGGTCGCGGGGGTGTCCGATCTGATTTCAGCAAAACTACTGCAGTAAGAA” are within error of each other in “relative integration efficiency (log2)” value: -6.03 ± 0.52 for the first, -6.79 ± 1.6 for the second.

“AATGTTGTTGATGCAACCATAAAGTGATATTTAATAATTATTTATAATCAGCAACTCAACCATATATTGATATCTCTAACCACAAAAACAAAACAACCATAAGTTGATATTTTTGTGAATCGAGTATTTCAGCAAAACTACTGCAGTAAGAA” and “AATGTTGTTGATGCAACCATAAAGTGATATTTAATAATTATTTATAATCAGCAACTTAACCAACCATATATTGATATCTCACAAAACAACCATAAGTTGATATTTTTGTGAATCGAGTATTTCAGCAAAACTACTGCAGTAAGAAAGTTACT” are within error of each other in “relative integration efficiency (log2)” value: -4.84 ± 0.92 for the first, -5.17 ± 1.5 for the second.

First: AATGTTGTTGATGCAACCATAAAGTGATATTTAATAATTATTTATAATCAGCAACTTAACCAACCATATATTGATATCTCCACAAAAACAAAACAACCATAAGTTGATATTTTTGTGAATCGAGTATTTCAGCAAAACTACTGCAGTAAGAA
Second: AATGTTGTTGATGCAACCATAAAGTGATATTTAATAATTATTTATAATCAGCAACTTAACCACAAAACAACACGCGCGGTCGCGAGACACCCCACCAACGCCTGGTCGCGGGGGTGTCCGATCTGATTTCAGCAAAACTACTGCAGTAAGAA
The “relative integration efficiency (log2)” value of the first is higher: -2.66 ± 0.88 for the first, -7.6 ± 2.4 for the second.

“AATGTTGTTGATGCAACCATAAAGTGATATTTAATAATTATTTATAATCAGCAACTTAACCACAAAACAACCATATATGTCGCGAGACACCCCACCAACGCCTGGTCGCGGGGGTGTCCGATCTGATTTCAGCAAAACTACTGCAGTAAGAA” and “AATGTTGTTGATGCAACCATAAAGTGATATTTAATAATTATTTATAATCAGCAACTTAACCACAAAACAACCATATATTGATAACAAAACAACCATAAGTTGATATTTTTGTGAATCGAGTATTTCAGCAAAACTACTGCAGTAAGAAAGTT” are within error of each other in “relative integration efficiency (log2)” value: -6.15 ± 1.3 for the first, -4.08 ± 0.82 for the second.

“AATGTTGTTGATGCAACCATAAAGTGATATTTAATAATTATTTATAATCAGCAACTTAACCACAAAACAACCATATCGGTCGCGAGACACCCCACCAACGCCTGGTCGCGGGGGTGTCCGATCTGATTTCAGCAAAACTACTGCAGTAAGAA” and “AATGTTGTTGATGCAACCATAAAGTGATATTTAATAATTATTTATAATCAGCAACTTAACCACAAAAGTTGGTATATAACTATAGAGACAAAAGTTGGTATTCAACTATAAAATGTGAATCGAGTATTTCAGCAAAACTACTGCAGTAAGAA” are within 0.2 log units of each other in “relative integration efficiency (log2)” value: -6.09 ± 0.98 for the first, -6.13 ± 2.2 for the second.

“AATGTTGTTGATGCAACCATAAAGTGATATTTAATAATTATTTATAATCAGCAACTTAACCACAAAATGTGAATCGAGTATTTCAGCAAAACTACTGCAACCATATATTGATATCTCACAAAACAACCATAAGTTGATATTTTCAGTAAGAA” and “AATGTTGTTGATGCAACCATAAAGTGATATTTAATAATTATTTATAATCAGCAACTTAACCACAAAATGTGAATCGAGTATTTCAGCCAACCATATATTGATATCTCACAAAACAACCATAAGTTGATATTTTAAAACTACTGCAGTAAGAA” are within error of each other in “relative integration efficiency (log2)” value: -6.39 ± 0.78 for the first, -5.8 ± 1.9 for the second.

“AATGTTGTTGATGCAACCATAAAGTGATATTTAATAATTATTTATAATCAGCAACTTAACCACAAACACCAACGCGCGGTCGCGAGACACCCCACCAACGCCTGGTCGCGGGGGTGTCCGATCTGATTTCAGCAAAACTACTGCAGTAAGAA” and “AATGTTGTTGATGCAACCATAAAGTGATATTTAATAATTATTTATAATCAGCAACTTAACCACAACCATATATTGATATCTCACAAAACAACCATAAGTTGATATTTTTGTGAATCGAGTATTTCAGCAAAACTACTGCAGTAAGAAAGTTA” are within error of each other in “relative integration efficiency (log2)” value: -6.34 ± 0.81 for the first, -5.27 ± 0.97 for the second.

“AATGTTGTTGATGCAACCATAAAGTGATATTTAATAATTATTTATAATCAGCAACTTAACCACCAACCATATATTGATATCTCAAAAACAAAACAACCATAAGTTGATATTTTTGTGAATCGAGTATTTCAGCAAAACTACTGCAGTAAGAA” and “AATGTTGTTGATGCAACCATAAAGTGATATTTAATAATTATTTATAATCAGCAACTTAACCACCAACCATATATTGATATCTCACAAAACAACCATAAGTTGATATTTTTGTGAATCGAGTATTTCAGCAAAACTACTGCAGTAAGAAAGTT” are within error of each other in “relative integration efficiency (log2)” value: -2.83 ± 0.93 for the first, -4.85 ± 1.1 for the second.

Compared with “AATGTTGTTGATGCAACCATAAAGTGATATTTAATAATTATTTATAATCAGCAACTTAACCACCCCCACCAACGCGCGGTCGCGAGACACCCCACCAACGCCTGGTCGCGGGGGTGTCCGATCTGATTTCAGCAAAACTACTGCAGTAAGAA”, “AATGTTGTTGATGCAACCATAAAGTGATATTTAATAATTATTTATAATCAGCAACTTAACCCAACCATATATTGATATCTCACAAAAACAAAACAACCATAAGTTGATATTTTTGTGAATCGAGTATTTCAGCAAAACTACTGCAGTAAGAA” is higher in “relative integration efficiency (log2)” value: -6.56 ± 0.76 for the first, -3.11 ± 0.98 for the second.

“AATGTTGTTGATGCAACCATAAAGTGATATTTAATAATTATTTATAATCAGCAACTTAACCCAACCATATATTGATATCTCACAAAACAACCATAAGTTGATATTTTTGTGAATCGAGTATTTCAGCAAAACTACTGCAGTAAGAAAGTTAC” and “AATGTTGTTGATGCAACCATAAAGTGATATTTAATAATTATTTATAATCAGCAACTTAACCCACCCCACCAACGCGCGGTCGCGAGACACCCCACCAACGCCTGGTCGCGGGGGTGTCCGATCTGATTTCAGCAAAACTACTGCAGTAAGAA” are within error of each other in “relative integration efficiency (log2)” value: -7.05 ± 1.7 for the first, -6.3 ± 1.9 for the second.

“AATGTTGTTGATGCAACCATAAAGTGATATTTAATAATTATTTATAATCAGCAACTTACAACACCCCACCAACGCGCGGTCGCGAGACACCCCACCAACGCCTGGTCGCGGGGGTGTCCGATCTGATTTCAGCAAAACTACTGCAGTAAGAA” and “AATGTTGTTGATGCAACCATAAAGTGATATTTAATAATTATTTATAATCAGCAACTTCCAACACCCCACCAACGCGCGGTCGCGAGACACCCCACCAACGCCTGGTCGCGGGGGTGTCCGATCTGATTTCAGCAAAACTACTGCAGTAAGAA” are within error of each other in “relative integration efficiency (log2)” value: -5.66 ± 1.2 for the first, -4.36 ± 1.2 for the second.

“AATGTTGTTGATGCAACCATAAAGTGATATTTAATAATTATTTATAATCAGCCAACCATATATTGATATCTCAACTTAACCACAAAAACAAAACAACCATAAGTTGATATTTTTGTGAATCGAGTATTTCAGCAAAACTACTGCAGTAAGAA” and “AATGTTGTTGATGCAACCATAAAGTGATATTTAATAATTATTTATAATCAGCCAACCATATATTGATATCTCACAAAACAACCATAAGTTGATATTTTAACTTAACCACAAAATGTGAATCGAGTATTTCAGCAAAACTACTGCAGTAAGAA” are within error of each other in “relative integration efficiency (log2)” value: -7.27 ± 2.4 for the first, -6.91 ± 2.5 for the second.

Going from “AATGTTGTTGATGCAACCATAAAGTGATATTTAATAATTATTTATAATCATACCAGGCCAACACCCCACCAACGCGCGGTCGCGAGACACCCCACCAACGCCTGGTCGCGGGGGTGTCCGATCTGATTTCAGCAAAACTACTGCAGTAAGAA” to “AATGTTGTTGATGCAACCATAAAGTGATATTTAATAATTATTTATAATCATTGTGAGCGGATAACAACAACCATATATTGATATCTCACAAAACAACCATAAGTTGATATTTTTGTGAATCGAGTATTTCAGCAAAACTACTGCAGTAAGAA”, the “relative integration efficiency (log2)” value rises from -6.02 ± 1.1 to -3.2 ± 0.53.

“AATGTTGTTGATGCAACCATAAAGTGATATTTAATAATTATTTATAATCCAACCATATATTGATATCTCACAAAACAACCATAAGTTGATATTTTTGTGAATCGAGTATTTCAGCAAAACTACTGCAGTAAGAAAGTTACTTCGTGGTATGG” and “AATGTTGTTGATGCAACCATAAAGTGATATTTAATAATTATTTATAATCCAACCATATATTGATATCTCAGCAACTTAACCACAAAAACAAAACAACCATAAGTTGATATTTTTGTGAATCGAGTATTTCAGCAAAACTACTGCAGTAAGAA” are within error of each other in “relative integration efficiency (log2)” value: -6.76 ± 0.87 for the first, -5.59 ± 1.3 for the second.

“AATGTTGTTGATGCAACCATAAAGTGATATTTAATAATTATTTATACAACCATATATTGATATCTCACAAAACAACCATAAGTTGATATTTTTGTGAATCGAGTATTTCAGCAAAACTACTGCAGTAAGAAAGTTACTTCGTGGTATGGGAG” and “AATGTTGTTGATGCAACCATAAAGTGATATTTAATAATTATTTATCCGACTACCAGGCCAACACCCCACCAACGCGCGGTCGCGAGACACCCCACCAACGCCTGGTCGCGGGGGTGTCCGATCTGATTTCAGCAAAACTACTGCAGTAAGAA” are within error of each other in “relative integration efficiency (log2)” value: -6.01 ± 0.81 for the first, -6.94 ± 1.3 for the second.

With “AATGTTGTTGATGCAACCATAAAGTGATATTTAATAATTATTTCAACCATAAAGTGATATTTAACTTCAACCATATATTGATATCTCACAAAACAACCATAAGTTGATATTTTTGTGAATCGAGTATTTCAGCAAAACTACTGCAGTAAGAA” the “relative integration efficiency (log2)” value was -6.43 ± 0.89.
